Test [1] addresses HLA-A*01:01. As to the kind of experiment: IEDB peptide-MHC binding, purified MHC/direct/fluorescence; filed as Kd, often an IC50 or EC50 that approximates it; ≥ and ≤ were set here for values at or beyond the usual limits of such assays. Conditions: source organism: Giardia lamblia ATCC 50803.
The target in test [2] is HLA-A*02:01. Described as above. Conditions: source organism: Giardia lamblia ATCC 50803.
The target in test [3] is HLA-A*02:06. Described as above. The conditions noted are these: source organism: Giardia lamblia ATCC 50803.
Test [4] deals with HLA-A*02:11. The description is as above. Conditions: source organism: Giardia lamblia ATCC 50803.
The target of test [5] is HLA-A*02:12. The description is as above. The conditions noted are these: source organism: Giardia lamblia ATCC 50803.
The target in test [6] is HLA-A*02:16. The test is described as above. Conditions: source organism: Giardia lamblia ATCC 50803.
Test [7] addresses HLA-A*03:01. The test is described as above. Conditions: source organism: Giardia lamblia ATCC 50803.
The target of test [8] is HLA-A*11:01. Described as above. The conditions noted are these: source organism: Giardia lamblia ATCC 50803.
For test [9], the target named is HLA-A*24:02. The description is as above. The conditions noted are these: source organism: Giardia lamblia ATCC 50803.
The target of test [10] is HLA-A*31:01. Described as above. The conditions noted are these: source organism: Giardia lamblia ATCC 50803.
Test [11] concerns the target HLA-B*07:02. The description is as above. Conditions: source organism: Giardia lamblia ATCC 50803.
Test [12] concerns the target HLA-B*08:02. The description is as above. The conditions noted are these: source organism: Giardia lamblia ATCC 50803.
The target in test [13] is HLA-B*15:01. The test is described as above. Conditions: source organism: Giardia lamblia ATCC 50803.
Test [14] has as its target HLA-B*18:01. The description is as above. The conditions noted are these: source organism: Giardia lamblia ATCC 50803.
In test [15] the target is HLA-B*27:05. The test is described as above. The conditions noted are these: source organism: Giardia lamblia ATCC 50803.
The target of test [16] is HLA-B*40:01. The description is as above. Conditions: source organism: Giardia lamblia ATCC 50803.
For test [17], the target named is HLA-B*44:02. The test is described as above. The conditions noted are these: source organism: Giardia lamblia ATCC 50803.
Test [18] addresses HLA-B*46:01. The test is described as above. The conditions noted are these: source organism: Giardia lamblia ATCC 50803.
Test [19] concerns the target HLA-B*58:01. The test is described as above. The conditions noted are these: source organism: Giardia lamblia ATCC 50803.
The target of test [20] is HLA-A*02:03. As to the kind of experiment: IEDB peptide-MHC binding, purified MHC/competitive/fluorescence; filed as Kd, often an IC50 or EC50 that approximates it; ≥ and ≤ were set here for values at or beyond the usual limits of such assays. Conditions: source organism: Giardia lamblia ATCC 50803.
The target in test [21] is HLA-A*01:01. As to the kind of experiment: IEDB peptide-MHC binding, purified MHC/competitive/fluorescence; ≥ and ≤ were set here for values at or beyond the usual limits of such assays. The conditions noted are these: source organism: Rattus norvegicus.
In test [22] the target is HLA-A*02:01. Described as above. The conditions noted are these: source organism: Rattus norvegicus.
Test [23] deals with HLA-A*03:01. Described as above. Conditions: source organism: Rattus norvegicus.
The target of test [24] is HLA-A*11:01. The description is as above. Conditions: source organism: Rattus norvegicus.
Test [25] addresses HLA-A*24:02. The test is described as above. Conditions: source organism: Rattus norvegicus.
In test [26] the target is HLA-A*25:01. The test is described as above. The conditions noted are these: source organism: Rattus norvegicus.
The target in test [27] is HLA-A*29:02. The description is as above. The conditions noted are these: source organism: Rattus norvegicus.
The target in test [28] is HLA-A*31:01. Described as above. Conditions: source organism: Rattus norvegicus.
For test [29], the target named is HLA-A*68:02. The description is as above. Conditions: source organism: Rattus norvegicus.
The target in test [30] is HLA-B*07:02. Described as above. The conditions noted are these: source organism: Rattus norvegicus.
Test [31] addresses HLA-B*08:01. Described as above. Conditions: source organism: Rattus norvegicus.
The target of test [32] is HLA-B*14:02. The description is as above. The conditions noted are these: source organism: Rattus norvegicus.
Test [33] addresses HLA-B*18:01. Described as above. Conditions: source organism: Rattus norvegicus.
For test [34], the target named is HLA-B*35:01. The description is as above. The conditions noted are these: source organism: Rattus norvegicus.
For test [35], the target named is HLA-B*37:01. The test is described as above. Conditions: source organism: Rattus norvegicus.
Test [36] addresses HLA-B*40:02. The test is described as above. The conditions noted are these: source organism: Rattus norvegicus.
Test [37] deals with HLA-B*44:03. The test is described as above. Conditions: source organism: Rattus norvegicus.
Test [38] has as its target HLA-B*51:01. Described as above. The conditions noted are these: source organism: Rattus norvegicus.
For test [39], the target named is HLA-B*53:01. The test is described as above. Conditions: source organism: Rattus norvegicus.
The target of test [40] is HLA-B*58:01. The test is described as above. The conditions noted are these: source organism: Rattus norvegicus.
Test [41] concerns the target HLA-A*03:01. As to the kind of experiment: IEDB peptide-MHC binding, purified MHC/competitive/fluorescence; filed as Kd, often an IC50 or EC50 that approximates it; ≥ and ≤ were set here for values at or beyond the usual limits of such assays. The conditions noted are these: source organism: Human immunodeficiency virus 1.
The target of test [42] is HLA-A*11:01. The test is described as above. Conditions: source organism: Human immunodeficiency virus 1.
In test [43] the target is HLA-A*26:01. The test is described as above. Conditions: source organism: Human immunodeficiency virus 1.
Test [44] has as its target HLA-A*26:03. The test is described as above. Conditions: source organism: Human immunodeficiency virus 1.
Test [45] deals with HLA-A*30:01. Described as above. The conditions noted are these: source organism: Human immunodeficiency virus 1.
Test [46] has as its target HLA-A*31:01. The test is described as above. Conditions: source organism: Human immunodeficiency virus 1.
Test [47] concerns the target HLA-B*08:02. Described as above. Conditions: source organism: Human immunodeficiency virus 1.
The target of test [48] is HLA-C*01:02. As to the kind of experiment: IEDB peptide-MHC binding, purified MHC/direct/fluorescence; filed as Kd, often an IC50 or EC50 that approximates it; ≥ and ≤ were set here for values at or beyond the usual limits of such assays. Conditions: source organism: Homo sapiens.

Kd and IC50 data for four sequences are collected here from the Immune Epitope Database (IEDB).

Consider HCIDKTPGL, for which the Kd in test [1] is at least 20 µM; in test [2], 0.319 µM; in test [3], 0.106 µM; in [4] it was 0.914 µM; in test [5], 0.26 µM; in test [6] it was 0.39 µM. Further, the Kd in test [7], in test [8], in [9], in test [10], in [11] and in test [12] was at least 20 µM each time. Further, the dissociation constant (Kd) in test [13], in [14], in test [15], in test [16], in test [17] and in [18] was at least 20 µM throughout. Further, the values for the Kd in test [19] and in test [20] were at least 20 µM and 2.48 µM, respectively.

SLLERGQQLGV: the 50% inhibitory concentration (IC50) in [21] is at least 20 µM; in [22] it was 0.0187 µM; in test [23] it was at least 20 µM; in test [24], at least 20 µM; in test [25], 6.08 µM; in test [26], at least 20 µM. Further, the IC50 in [27] is 17.8 µM; in [28], at least 20 µM; in test [29] it was 0.914 µM; in test [30], at least 20 µM; in test [31] it was at least 20 µM; in [32], at least 20 µM. Also, the IC50 in test [33], in test [34], in test [35], in test [36], in test [37] and in test [38] was at least 20 µM each time. In addition, the IC50 in test [39] and in test [40] was at least 20 µM each time.

With IATLYCVHQR, the Kd in [41] is at least 20 µM; in [42], 5.82 µM; in test [43], at least 20 µM; in [44] it was at least 20 µM; in test [45], 5.99 µM; in test [46], 0.761 µM. This sequence also showed a Kd in test [47] of at least 20 µM.

In test [48], PLPDRSLPAL returned an equilibrium dissociation constant (Kd) of at most 0.0001 µM.

As a reminder, the Kd is a measure of binding affinity in units of concentration. One may read the IC50 as the midpoint of a concentration-inhibition curve.
